Measured values published in US20070248536A1.

B1: Affilin variation SPC1-A7BB (designed binder)
chain: MGLISFSEDRAFQGRRYMCLTDCPNLQPYFSRCNSINVWSGCWMIYERPNYQGHQYFLRRGEYPDYQQWMGLSDSIRSCCLIPPHSGAYRMKIYDRDELRGQMSELTDDCLSVQDRFHLTEIHSLNVLEGSWILYEMPNYRGRQYLLRPGEYRRFLDWGAPNAKVGSLRRVMDLYLEHHHHHH
B2: Affilin variation SPC1-A7_Cys (designed binder)
chain: MGLISFSEDRAFQGRRYMCLTDCPNLQPYFSRCNSINVWSGCWMIYERPNYQGHQYFLRRGEYPDYQQWMGLSDSIRSCCLIPPHSGAYRMKIYDRDELRGQMSELTDDCLSVQDRFHLTEIHSLNVLEGSWILYEMPNYRGRQYLLRPGEYRRFLDWGAPNAKVGSLRRVMDLYLESGGGGGGSCHHHHHHHHHH

Columns and labels:
human IgG Fc (human) [1] = experiment: method not given; given for comparison with the ELISA value
human IgG Fc (human) [2] = experiment: SPR (BIACORE), value before the coupling to PE
human IgG Fc (human) [3] = experiment: concentration-dependent ELISA, IgG Fc coated, apparent KD

Binder | Kd (human IgG Fc (human) [1]) [nM] | Kd (human IgG Fc (human) [2]) [nM] | Kd (human IgG Fc (human) [3]) [nM]
B1 | 280 | – | –
B2 | – | 100 | 233
